Test results as given in article PMC10360156.

Experiments:
[1] = molecular target: four maltose binding proteins arranged in tandem (4MBP)
[2] = molecular target: four maltose binding proteins arranged in tandem (4MBP); remark: listed apart in the source
[3] = molecular target: four maltose binding proteins arranged in tandem (4MBP); remark: listed apart in the source

percentage of residues of 4MBP forming weak aggregates after unfolding and 5 s relaxation at 0 pN, with 5 μM HSPB8 (40% in the absence of chaperone) [1] | percentage of residues of 4MBP in tight aggregates (not unfolded at 63 pN) after unfolding and relaxation, with 5 μM HSPB8 [1] | no. of weak aggregates of 4MBP per trace with 5 μM HSPB8 (No HSPB8: 1.16) (aggregates per trace) [2] | percentage of residues of 4MBP forming weak aggregates after unfolding and relaxation, with 5 μM HSPB8-K141E (19% for wild-type HSPB8; 40% in the absence of chaperone) [3] | no. of weak aggregates of 4MBP per trace with 5 μM HSPB8-K141E (No HSPB8: 1.16) (aggregates per trace) [2] | Binder
19% | < 2% | 0.64 | – | – | human small heat shock protein HSPB8 (wild type) (natural protein) MADGQMPFSCHYPSRLRRDPFRDSPLSSRLLDDGFGMDPFPDDLTASWPDWALPRLSSAWPGTLRSGMVPRGPTATARFGVPAEGRTPPPFPGEPWKVCVNVHSFKPEELMVKTKDGYVEVSGKHEEKQQEGGIVSKNFTKKIQLPAEVDPVTVFASLSPEGLLIIEAPQVPPYSTFGESSFNNELPQDSQEVTCT
– | – | – | 31% | 0.85 | HSPB8-K141E, pathogenic mutant of human HSPB8 (natural protein) MADGQMPFSCHYPSRLRRDPFRDSPLSSRLLDDGFGMDPFPDDLTASWPDWALPRLSSAWPGTLRSGMVPRGPTATARFGVPAEGRTPPPFPGEPWKVCVNVHSFKPEELMVKTKDGYVEVSGKHEEKQQEGGIVSKNFTEKIQLPAEVDPVTVFASLSPEGLLIIEAPQVPPYSTFGESSFNNELPQDSQEVTCT
